Test results from patent US20100184701A1 (TREVENA, published 2010).

T1: human angiotensin 2 type 1 receptor (human, UniProt P30556 1-359)
T1 sequence (looked up): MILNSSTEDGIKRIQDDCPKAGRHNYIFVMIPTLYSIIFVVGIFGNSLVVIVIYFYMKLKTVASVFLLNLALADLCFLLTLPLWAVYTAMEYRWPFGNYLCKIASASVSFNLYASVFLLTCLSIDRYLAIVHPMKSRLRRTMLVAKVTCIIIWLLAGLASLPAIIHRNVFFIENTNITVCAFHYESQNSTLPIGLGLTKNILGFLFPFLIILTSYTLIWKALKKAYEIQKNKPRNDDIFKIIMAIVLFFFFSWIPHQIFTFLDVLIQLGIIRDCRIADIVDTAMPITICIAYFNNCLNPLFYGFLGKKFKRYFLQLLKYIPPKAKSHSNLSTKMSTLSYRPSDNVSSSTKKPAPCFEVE

T2: rat angiotensin 2 type 1 receptor (rat, UniProt P25095 1-359)
T2 sequence (looked up): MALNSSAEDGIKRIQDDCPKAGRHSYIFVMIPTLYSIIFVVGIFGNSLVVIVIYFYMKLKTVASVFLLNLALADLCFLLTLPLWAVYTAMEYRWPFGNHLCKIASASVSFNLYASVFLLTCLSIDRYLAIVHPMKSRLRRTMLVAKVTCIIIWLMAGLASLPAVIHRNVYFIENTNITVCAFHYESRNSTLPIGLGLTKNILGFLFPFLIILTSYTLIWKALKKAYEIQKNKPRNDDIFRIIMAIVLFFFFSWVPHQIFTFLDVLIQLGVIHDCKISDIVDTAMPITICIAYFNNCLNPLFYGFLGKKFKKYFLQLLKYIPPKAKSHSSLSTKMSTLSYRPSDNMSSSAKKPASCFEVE


Key:
[1] = target: T1, human angiotensin 2 type 1 receptor; assay: cell-based or functional assay
[2] = target: T2, rat angiotensin 2 type 1 receptor; assay: cell-based or functional assay

| Binder | IP One EC50 (M) [1] [M] | b-arrestin2 Max (%) [1] [%] | IP One EC50 (M) [2] [M] | b-arrestin2 Max (%) [2] [%] | b-arrestin2 EC50 [1] [µM] | IP One Max (%) [2] [%] | b-arrestin2 EC50 [2] [µM] | IP One Max (%) [1] [%] |
| --- | --- | --- | --- | --- | --- | --- | --- | --- |
| DRVYFHP (N-Me-Asp (N-methyl-L-aspartic acid) at 1; C-terminal amide (NH2)) [SEQ ID NO: 65] | > 1e-05 | 37.8 | > 1e-05 | 67.3 | – | – | – | – |
| ERVYFHP (C-terminal amide (NH2)) [SEQ ID NO: 64] | > 1e-05 | 20.4 | > 1e-05 | 26.9 | 1.2 | – | – | – |
| DRVYYHP (D-Asp at 1; C-terminal amide (NH2)) [SEQ ID NO: 58] | > 1e-05 | 48.7 | – | 81.1 | 0.33 | 9.94 | 0.26 | – |
| DRVYYHP (C-terminal amide (NH2)) [SEQ ID NO: 57] | – | 42.1 | – | 64.4 | – | 35.3 | – | 10 |
| DRVYFHP (C-terminal amide (NH2)) [SEQ ID NO: 63] | > 1e-05 | 35.9 | > 1e-05 | 50.1 | – | – | – | – |
| DRVYYHP (N-Me-Asp (N-methyl-L-aspartic acid) at 1; C-terminal amide (NH2)) [SEQ ID NO: 61] | > 1e-05 | 37.5 | > 1e-05 | 60.4 | 1.2 | – | 2.1 | – |
| ERVYYHP (D-Glu at 1; C-terminal amide (NH2)) [SEQ ID NO: 60] | > 1e-05 | 44 | > 1e-05 | 79.3 | – | – | 0.18 | – |
| ERVYYHP (N-Me-Glu (N-methyl-L-glutamic acid) at 1; C-terminal amide (NH2)) [SEQ ID NO: 62] | > 1e-05 | 24.7 | > 1e-05 | 44.2 | – | – | – | – |
| ERVYYHP (C-terminal amide (NH2)) [SEQ ID NO: 59] | > 1e-05 | 19.5 | > 1e-05 | 27.8 | 1.4 | – | – | – |
| ERVYFHP (N-Me-Glu (N-methyl-L-glutamic acid) at 1; C-terminal amide (NH2)) [SEQ ID NO: 66] | > 1e-05 | 30.6 | > 1e-05 | 58.5 | – | – | 10 | – |
| RVYIHP (C-terminal amide (NH2)) [SEQ ID NO: 13] | > 1e-05 | 43.4 | > 1e-05 | 165 | – | – | – | – |
| ARVYIHPA (NM-D-Ala (N-methyl-D-alanine) at 1; D-Ala at 8) [SEQ ID NO: 82] | > 1e-05 | 38.3 | > 1e-05 | 60.6 | – | – | – | – |
